The values that follow come from patent US20050260216A1 (published 2005).

In assay [1] the target is human type-2 IL-4 receptor (on A549 cells) (human) (UniProt P24394). Kind of assay: cell-based or functional assay.
Assay [2] has as its target T1, human type-2 IL-4 receptor (on A549 cells) (human, UniProt P24394 26-825; P78552 22-427).
T1 sequence (looked up) 1: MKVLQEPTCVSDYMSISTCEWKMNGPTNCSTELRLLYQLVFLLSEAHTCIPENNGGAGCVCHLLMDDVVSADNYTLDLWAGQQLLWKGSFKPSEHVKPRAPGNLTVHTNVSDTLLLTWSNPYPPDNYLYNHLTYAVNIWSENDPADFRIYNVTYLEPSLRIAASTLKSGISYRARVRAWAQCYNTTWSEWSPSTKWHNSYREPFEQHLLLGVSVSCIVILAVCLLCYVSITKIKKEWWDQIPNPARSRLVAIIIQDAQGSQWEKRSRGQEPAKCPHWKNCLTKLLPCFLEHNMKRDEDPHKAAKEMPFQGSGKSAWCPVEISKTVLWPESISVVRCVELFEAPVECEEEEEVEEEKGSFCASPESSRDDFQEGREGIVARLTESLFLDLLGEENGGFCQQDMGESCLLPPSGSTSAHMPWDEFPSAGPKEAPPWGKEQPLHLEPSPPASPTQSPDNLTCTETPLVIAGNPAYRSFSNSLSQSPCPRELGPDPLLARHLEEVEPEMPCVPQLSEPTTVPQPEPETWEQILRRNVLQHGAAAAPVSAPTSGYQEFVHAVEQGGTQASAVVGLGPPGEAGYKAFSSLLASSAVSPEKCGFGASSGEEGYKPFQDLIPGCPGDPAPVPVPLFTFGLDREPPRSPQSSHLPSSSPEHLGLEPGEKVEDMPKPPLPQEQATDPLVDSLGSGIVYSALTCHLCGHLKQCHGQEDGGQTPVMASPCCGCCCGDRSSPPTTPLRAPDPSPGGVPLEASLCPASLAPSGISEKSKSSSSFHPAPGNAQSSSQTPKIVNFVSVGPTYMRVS
T1 sequence (looked up) 2: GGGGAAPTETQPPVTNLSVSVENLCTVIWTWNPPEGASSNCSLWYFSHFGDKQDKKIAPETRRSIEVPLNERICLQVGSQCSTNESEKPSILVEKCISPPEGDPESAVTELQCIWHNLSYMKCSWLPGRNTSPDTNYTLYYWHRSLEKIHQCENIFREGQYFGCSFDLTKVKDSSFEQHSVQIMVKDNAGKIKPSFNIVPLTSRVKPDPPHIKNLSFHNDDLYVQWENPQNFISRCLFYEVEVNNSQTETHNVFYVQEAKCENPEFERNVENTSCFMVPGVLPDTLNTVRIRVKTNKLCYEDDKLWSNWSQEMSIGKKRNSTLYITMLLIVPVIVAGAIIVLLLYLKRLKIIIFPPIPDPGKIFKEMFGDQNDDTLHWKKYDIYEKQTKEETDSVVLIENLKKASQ
As to the kind of experiment: cell-based or functional assay.

Molecule “recombinant mouse IL-13 (catalogue number 413-ML-025, R&D Systems) (from UniProt P20109 26-131) (ligand)” gave a phosphorylation of STAT6 in A549 cells (Western blot); lowest active concentration tested in assay [1] of 10 ng/mL.

B1: chimaeric IL-13 (free cIL-13 generated from GST-cIL-13 by thrombin cleavage) (ligand)
chain: GPVPRSVSLPLTLRELIEELVNITQDQTPLCNGSMVWSVDLAAGGYCAALESLTNISNCNAIEKTQRMLGGLCNRKAPTTVSSLPDTKIEVAQFVKDLLSYTKQLFRHGPF
Consider B1, for which, in assay [2], the “bioactivity relative to mIL-13 (STAT6 phosphorylation in A549 cells)” value was approximately 5 fold less than mIL-13.
